Data on one molecule can be found in publication PMC4999505, “Linear ubiquitination is involved in the pathogenesis of optineurin-associated amyotrophic lateral sclerosis” (Nature Communications, 2016).

Series [1] deals with the molecule itself. Description: crystal structure; OPTN CC2-UBAN (416–510) crystallised with linear tetraubiquitin, hanging drop, 16% PEG 3350, 250 mM HCOOK, 20 °C; 2.7 Å.
For series [2], the target named is T1, linear (M1-linked) tetraubiquitin (UniProt P0CG48 1-76; P0CG48 1-76; P0CG48 1-76; P0CG48 1-76).
T1 construct: ubiquitin, first unit of four joined head to tail (M1-linked); ubiquitin, second unit; ubiquitin, third unit; ubiquitin, fourth unit; also called linear tetraubiquitin; linear tetra-ubiquitin; source: E. coli, purified (heat treatment, HiTrap SP, Superdex 200)
The description is as above. Particulars: both partners purified.

T1 sequence (P0CG48 1-304, one chain of several): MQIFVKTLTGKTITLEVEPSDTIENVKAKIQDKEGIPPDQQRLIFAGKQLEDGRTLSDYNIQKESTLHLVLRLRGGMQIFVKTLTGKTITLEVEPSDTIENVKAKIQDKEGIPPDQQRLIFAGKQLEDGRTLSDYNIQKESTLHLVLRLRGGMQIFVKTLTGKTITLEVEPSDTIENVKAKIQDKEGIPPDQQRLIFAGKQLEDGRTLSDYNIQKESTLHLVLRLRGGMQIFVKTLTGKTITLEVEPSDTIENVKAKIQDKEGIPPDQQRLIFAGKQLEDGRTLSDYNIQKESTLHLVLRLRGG

B1: human OPTN CC2-UBAN region (residues 416–510) (domain or fragment, UniProt Q96CV9 416-510, looked up)
chain: EKVDRAVLKELSEKLELAEKALASKQLQMDEMKQTIAKQEEDLETMTILRAQMEVYCSDFHAERAAREKIHEEKEQLALQLAVLLKENDAFEDGG
notes: residues 445-505 modelled for the longest chain; GST was cut off with Turbo3C (HRV3C) protease; also called OPTN-UBAN; source: E. coli Rosetta 2 (DE3), purified (glutathione Sepharose 4B, on-column cleavage, Resource Q, Superdex 75)
Broadly, the stoichiometry N is the number of molecules, sites or subunits per partner or assembly. For the molecule B1, the “stoichiometry N” value in series [1] came out at 2. Besides, in series [2], the binding result is reported as “binds”.
